Data on one molecule can be found in publication PMC10641069, “Intra- and inter-molecular regulation by intrinsically-disordered regions governs PUF protein RNA binding” (Nature Communications, 2023).

Positions count from the first letter of the chain named.

Common to all, as to assay: EMSA; no LST-1; EMSA: FBF-2 in 20 mM HEPES pH 7.4, 150 mM NaCl, 0.5 mM TCEP mixed 1:1 with 5 nM final RNA in 10 mM HEPES pH 7.4, 0.01% Tween 20, 0.1 mg/ml BSA, 0.1 mg/ml yeast
(In general: Mobility shift assays separate free from complexed probe on a gel.)

One data set has as its target T1, FBF-2 RBD+CT (Caenorhabditis elegans, UniProt Q09312 164-632).
T1 sequence: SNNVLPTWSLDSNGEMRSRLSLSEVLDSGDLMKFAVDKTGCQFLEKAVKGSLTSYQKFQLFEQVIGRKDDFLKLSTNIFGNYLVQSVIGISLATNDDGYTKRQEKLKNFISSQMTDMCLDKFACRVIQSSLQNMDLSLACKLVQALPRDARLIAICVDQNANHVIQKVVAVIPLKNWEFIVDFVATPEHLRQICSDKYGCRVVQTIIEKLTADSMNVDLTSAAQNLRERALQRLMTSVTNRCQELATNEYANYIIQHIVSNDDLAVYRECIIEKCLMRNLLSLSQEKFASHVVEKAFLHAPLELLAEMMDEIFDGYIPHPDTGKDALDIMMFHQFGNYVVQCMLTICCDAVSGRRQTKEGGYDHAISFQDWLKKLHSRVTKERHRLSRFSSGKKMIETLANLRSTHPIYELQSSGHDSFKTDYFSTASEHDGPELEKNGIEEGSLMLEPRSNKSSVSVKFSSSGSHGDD
The conditions noted are these: protein: recombinant; tags: none (His6-SUMO removed with Ulp1); label: 3'-Cy5.

The target in a further data set is T2, FBF-2 RBD (Caenorhabditis elegans, UniProt Q09312 164-575).
T2 sequence: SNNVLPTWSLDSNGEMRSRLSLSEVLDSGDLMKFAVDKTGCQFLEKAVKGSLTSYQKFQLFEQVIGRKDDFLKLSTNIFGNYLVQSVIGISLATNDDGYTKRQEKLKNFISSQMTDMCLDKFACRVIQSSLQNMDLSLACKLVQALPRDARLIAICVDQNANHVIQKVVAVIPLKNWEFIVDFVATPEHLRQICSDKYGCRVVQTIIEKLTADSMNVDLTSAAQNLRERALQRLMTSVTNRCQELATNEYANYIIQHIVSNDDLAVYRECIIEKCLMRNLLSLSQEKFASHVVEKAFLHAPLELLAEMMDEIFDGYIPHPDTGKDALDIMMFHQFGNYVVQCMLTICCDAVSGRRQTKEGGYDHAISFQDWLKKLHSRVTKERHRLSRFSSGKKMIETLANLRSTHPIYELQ
As to conditions: protein: recombinant; tags: none (His6-SUMO removed with TEV protease); label: 3'-Cy5.

Another data set addresses T3, FBF-2 RBD+CT L610A (Caenorhabditis elegans, UniProt Q09312 164-632, L610A).
T3 sequence: T1 sequence with L447A
As to conditions: protein: recombinant; tags: none (His6-SUMO removed with Ulp1); label: 3'-Cy5.

For the next data set, the target named is T4, FBF-2 RBD+CT Y479A (Caenorhabditis elegans, UniProt Q09312 164-632, Y479A).
T4 sequence: T1 sequence with Y316A
As to conditions: protein: recombinant; tags: none (His6-SUMO removed with Ulp1); label: 3'-Cy5.

As a reminder, the Kd is a measure of binding affinity in units of concentration. For AUCAUGUGCCAUAC (ssRNA) [gld-1 FBEa RNA (EMSA)], the Kd is 334 ± 61 nM with FBF-2 RBD+CT, 70 ± 23 nM with FBF-2 RBD, 51 ± 26 nM with FBF-2 RBD+CT L610A and 62 ± 14 nM with FBF-2 RBD+CT Y479A.
